The chains are these.
B3: endothelial nitric oxide synthase (eNOS), endogenous, human umbilical vein endothelial cells (HUVECs) (enzyme)
chain: GNLKSVAQEPGPPCGLGLGLGLGLCGKQGPATPAPEPSRAPASLLPPAPEHSPPSSPLTQPPEGPKFPRVKNWEVGSITYDTLSAQAQQDGPCTPRRCLGSLVFPRKLQGRPSPGPPAPEQLLSQARDFINQYYSSIKRSGSQAHEQRLQEVEAEVAATGTYQLRESELVFGAKQAWRNAPRCVGRIQWGKLQVFDARDCRSAQEMFTYICNHIKYATNRGNLRSAITVFPQRCPGRGDFRIWNSQLVRYAGYRQQDGSVRGDPANVEITELCIQHGWTPGNGRFDVLPLLLQAPDDPPELFLLPPELVLEVPLEHPTLEWFAALGLRWYALPAVSNMLLEIGGLEFPAAPFSGWYMSTEIGTRNLCDPHRYNILEDVAVCMDLDTRTTSSLWKDKAAVEINVAVLHSYQLAKVTIVDHHAATASFMKHLENEQKARGGCPADWAWIVPPISGSLTPVFHQEMVNYFLSPAFRYQPDPWKGSAAKGTGITRKKTFKEVANAVKISASLMGTVMAKRVKATILYGSETGRAQSYAQQLGRLFRKAFDPRVLCMDEYDVVSLEHETLVLVVTSTFGNGDPPENGESFAAALMEMSGPYNSSPRPEQHKSYKIRFNSISCSDPLVSSWRRKRKESSNTDSAGALGTLRFCVFGLGSRAYPHFCAFARAVDTRLEELGGERLLQLGQGDELCGQEEAFRGWAQAAFQAACETFCVGEDAKAAARDIFSPKRSWKRQRYRLSAQAEGLQLLPGLIHVHRRKMFQATIRSVENLQSSKSTRATILVRLDTGGQEGLQYQPGDHIGVCPPNRPGLVEALLSRVEDPPAPTEPVAVEQLEKGSPGGPPPGWVRDPRLPPCTLRQALTFFLDITSPPSPQLLRLLSTLAEEPREQQELEALSQDPRRYEEWKWFRCPTLLEVLEQFPSVALPAPLLLTQLPLLQPRYYSVSSAPSTHPGEIHLTVAVLAYRTQDGLGPLHYGVCSTWLSQLKPGDPVPCFIRGAPSFRLPPDPSLPCILVGPGTGIAPFRGFWQERLHDIESKGLQPTPMTLVFGCRCSQLDHLYRDEVQNAQQRGVFGRVLTAFSREPDNPKTYVQDILRTELAAEVHRVLCLERGHMFVCGDVTMATNVLQTVQRILATEGDMELDEAGDVIGVLRDQQRYHEDIFGLTLRTQEVTSRIRTQSFSLQERQLRGAVPWAFDPPGSDTNSP

In experiment [1] the target is T1, endothelial nitric oxide synthase (eNOS), endogenous, mouse cardiac microvascular endothelial cells (CMECs) (mouse, UniProt P70313 2-1202).
T1 construct: Endogenous protein in a cell lysate, detected by co-immunoprecipitation and immunoblot; also called endothelial NO synthase
T1 sequence (looked up): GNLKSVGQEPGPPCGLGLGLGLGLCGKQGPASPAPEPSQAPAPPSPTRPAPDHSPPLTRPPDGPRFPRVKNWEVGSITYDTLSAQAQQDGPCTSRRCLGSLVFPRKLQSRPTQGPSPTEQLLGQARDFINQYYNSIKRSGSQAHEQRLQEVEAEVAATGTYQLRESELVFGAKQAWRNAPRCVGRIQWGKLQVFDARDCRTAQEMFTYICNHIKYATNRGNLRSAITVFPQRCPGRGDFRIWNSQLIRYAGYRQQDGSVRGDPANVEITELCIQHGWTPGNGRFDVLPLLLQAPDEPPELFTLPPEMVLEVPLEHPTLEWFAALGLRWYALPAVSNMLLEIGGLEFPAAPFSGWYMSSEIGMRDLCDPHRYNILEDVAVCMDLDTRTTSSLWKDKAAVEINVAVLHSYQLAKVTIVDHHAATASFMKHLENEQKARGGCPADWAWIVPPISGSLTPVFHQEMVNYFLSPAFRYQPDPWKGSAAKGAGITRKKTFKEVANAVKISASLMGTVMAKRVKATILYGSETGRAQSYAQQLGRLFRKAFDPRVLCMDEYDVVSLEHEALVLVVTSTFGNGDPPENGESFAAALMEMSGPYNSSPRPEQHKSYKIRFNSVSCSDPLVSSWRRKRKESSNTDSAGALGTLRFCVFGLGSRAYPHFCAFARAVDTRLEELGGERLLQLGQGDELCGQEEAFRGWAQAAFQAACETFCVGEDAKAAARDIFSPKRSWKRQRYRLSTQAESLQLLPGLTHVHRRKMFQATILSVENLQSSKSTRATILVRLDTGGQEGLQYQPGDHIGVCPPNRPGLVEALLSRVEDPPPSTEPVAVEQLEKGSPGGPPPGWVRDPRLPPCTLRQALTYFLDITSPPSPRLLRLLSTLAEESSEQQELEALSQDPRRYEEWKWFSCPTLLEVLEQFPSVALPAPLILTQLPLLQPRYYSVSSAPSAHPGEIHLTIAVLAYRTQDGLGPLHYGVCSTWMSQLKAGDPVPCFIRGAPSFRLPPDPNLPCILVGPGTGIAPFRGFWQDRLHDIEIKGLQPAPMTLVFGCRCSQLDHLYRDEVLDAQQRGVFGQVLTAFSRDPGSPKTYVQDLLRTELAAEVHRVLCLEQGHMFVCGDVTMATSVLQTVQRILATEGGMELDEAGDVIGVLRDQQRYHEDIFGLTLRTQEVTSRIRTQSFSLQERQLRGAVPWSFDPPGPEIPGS
The experiment in a line: co-IP with eNOS or caveolin antibodies, immunoblot, CMEC lysates.

In experiment [2] the target is B3. The experiment in a line: caveolin IP, eNOS immunoblot, HUVEC lysates. (A western blot detects proteins with antibodies after separation by electrophoresis.)
Description: Following exposure to VEGF (50 ng/ml) for increasing periods of time (0, 0.5, 2, 5, and 30 min), EC were collected, lysed, and cell extracts used for immunoprecipitation as follows.
Experiment [3] addresses calmodulin (CaM), endogenous, human umbilical vein endothelial cells (HUVECs) (human, UniProt P0DP23 2-149). The experiment in a line: eNOS IP, CaM immunoblot, VEGF-treated HUVEC lysates.

B1: caveolin, endogenous, mouse cardiac microvascular endothelial cells (CMECs) (other, UniProt P49817 2-178, looked up)
chain: SGGKYVDSEGHLYTVPIREQGNIYKPNNKAMADEVTEKQVYDAHTKEIDLVNRDPKHLNDDVVKIDFEDVIAEPEGTHSFDGIWKASFTTFTVTKYWFYRLLSTIFGIPMALIWGIYFAILSFLHIWAVVPCIKSFLIEIQCISRVYSIYVHTFCDPLFEAIGKIFSNIRISTQKEI
notes: also called caveolin-1
As to B1, in experiment [1], the binding result is “binds”.

B2: caveolin, endogenous, human umbilical vein endothelial cells (HUVECs) (other, UniProt Q03135 2-178, looked up)
chain: SGGKYVDSEGHLYTVPIREQGNIYKPNNKAMADELSEKQVYDAHTKEIDLVNRDPKHLNDDVVKIDFEDVIAEPEGTHSFDGIWKASFTTFTVTKYWFYRLLSALFGIPMALIWGIYFAILSFLHIWAVVPCIKSFLIEIQCISRVYSIYVHTVCDPLFEAVGKIFSNVRINLQKEI
notes: also called caveolin-1
With B2, the binding result in experiment [2] was “binds”.
Turning to B3, the binding result in experiment [3] is on record as “binds”.

(Values after patent publication US20040110684A1 (UNIVERSITE CATHOLIQUE DE LOUVAIN, published 2004).)
